Patent US20090291088A1, “THERAPEUTIC COMBINATIONS OF ANTI-IGF-1R ANTIBODIES AND OTHER COMPOUNDS” (Biogen Idec MA Inc., priority 2008, published 2009)

B1: M14-C03: anti-IGF-1R antibody, allosteric blocker of IGF-1 and IGF-2 (antibody, V domains shown)
VH: EVQLLESGGGLVQPGGSLRLSCAASGFTFSKYMMSWVRQAPGKGLEWVSYISPSGGLTWYADSVKGRFTISRDNSKNTLYLQMNSLRAEDTAVYYCARDGARGYGMDVWGQGTTVTVSS
VL: DIQMTQSPATLSLSPGERATLSCRASQSVSSYLAWYQQKPGQAPRLLIYDASNRATGIPARFSGSGSGTDFTLTISSLEPEDFAVYYCQQRSNWPPEVTFGPGTKVDIK
modifications: Antibody variable heavy chain sequence; Antibody variable light chain sequence
B2: 20C8.3B8: murine anti-human IGF-1R monoclonal antibody from hybridoma; VH SEQ ID NO:43, VL SEQ ID NO:103 (antibody, V domains shown)
VH: DVQLQESGPDLVKPSQSLSLTCTVTGYSITSGYSWHWIRQFPGNKLEWMGYIHYSGGTNYNPSLKSRISITRDTSKNQFFLQLNSVTTEDTATYYCARSGYGYRSAYYFDYWGQGTTVTVSS
VL: DIVLTQSPASLAVSLGQRATISCRASKSVSTSAYSYMHWYQQKPGQPPKLLIYLASNLESGVPARFSGSGSGTDFTLNIHPVEEEDAATYYCQHSRELPYTFGGGTKLEIK
modifications: Antibody variable heavy chain sequence; Antibody variable light chain sequence
B3: 20D8.24B11: murine anti-human IGF-1R monoclonal antibody from hybridoma; VH SEQ ID NO:53, VL SEQ ID NO:103 (antibody, V domains shown)
VH: DVQLQESGPDLVKPSQSLSLTCTVTGYSITSGYSWHWIRQFPGNKLEWMGYIHYSGGTNYNPSLKSRISITRDTSKNQFFLQLNSVTTEDTATYYCARSGYGYRSAYYFDYWGQGTTLTVSS
VL: DIVLTQSPASLAVSLGQRATISCRASKSVSTSAYSYMHWYQQKPGQPPKLLIYLASNLESGVPARFSGSGSGTDFTLNIHPVEEEDAATYYCQHSRELPYTFGGGTKLEIK
modifications: Antibody variable heavy chain sequence; Antibody variable light chain sequence

Experiments:
[1] = biological target: T1, recombinant human IGF-1R-10His (Homo sapiens, UniProt P08069); experiment: SPR, antibodies and Fabs on IGF-1R-His captured via PENTA-His antibody; assay type: binding; conditions: full-length antibodies, 64 nM to 0.5 nM
T1 construct: denoted hIGF-1R(1-902)-His10, was purchased from R&D systems (Cat. No. 305-GR-050); purchased R&D Systems 305-GR-050

human INSR(28-956)-His10 = biological target: T2, human INSR(28-956)-His10 (Homo sapiens, UniProt P06213); experiment: SPR, receptor ectodomain injected over immobilized antibodies: INSR; assay type: binding; conditions: full-length fully human antibodies; up to 2 μM receptor
T2 construct: human INSR(28-956)-His10 (INSR (R&D systems)); purchased R & D Systems 1544-IR
Description: SPR analyses were performed using a Biacore3000. The instrument was set to 25° C. and assays performed with running buffer HBS-EP pH 7.2 purchased from Biacore (Biacore, Cat. No. BR-1001-88). The fully human antibodies, M13-C06, M14-C03, and M14-G11 were immobilized to ˜10,000 RU on Biacore CM5 Research Grade Sensor Chip surfaces using the standard NHS/EDC-amine reactive chemistry according to protocols supplied by Biacore. For immobilization, the antibodies were diluted to 40 μg/mL in a 10 mM Acetate pH 4.0 buffer. To investigate the relative kinetics of association and dissociation of the full-length ectodomains of human IGF-1R(1-902)-His10 (hIGF-1R-His10 (R&D systems)) and human INSR(28-956)-His10 (INSR (R&D systems)) to each of the human antibodies, increasing concentrations of hIGF-1R-His10 or INSR were injected over the sensorchip surfaces. The hIGF-1R-His10 concentration series ranged from 1.0 nM to 250 nM while the INSR concentrations ranged from 1.0 nM to 2 μM. All antibody surfaces were reliably regenerated with 100 mM Glycine, pH 2.0. […] Flow rates were 20 μl/min. (“His10” denotes a 10-residue histidine tag on the C-terminus of the constructs.)

NCI-H23 = experiment: IGF driven tumor cell growth, CELL TITER-GLO, H-23; assay type: cell-based, human; conditions: for Proliferation of Tumor Cells H-23: lung cancer cells
Description: (§1) NCI-H23, Calu-6, Colo-205, Panc-1, BxPC-3 (ATCC) tumor lines were purchased from ATCC. Cell lines were grown in complete growth medium containing RPMI-1640 (ATCC), 10% fetal bovine serum (Irvine Scientific Inc.) and 50 μg/ml of Gentamycin (Gibco, Invitrogen). Trypsin-EDTA solution (Sigma) was used for removal of adherent cells from culture vessels. Phosphate buffered saline, pH 7.2, was from MediaTech Inc The 96-well clear bottom plates for luminescent assay was purchased from Wallac Inc.
(§2) Cells grown to 80% monolayers were, trypsinized, washed, resuspended and plated into 96-well plates in 200 μl of 2% growth medium at 8×10^3 cells/well for NCI-H23 and Colo-205 cells; and 5×10^3 cells/well for Calu-6, Panc-1 and BxPC-3 cells. After 24 hours, the culture medium was replaced with 100 μl of serum free medium (SFM), and 50 μl of serially diluted antibodies at 4× concentration was added. […] All treatments were done in triplicates. Cell growth was measured using the CELL TITER-GLO™ Luminescent Cell Viability Assay (Promega, Madison, Wis.). The 1:1 mixture of reagent and SFM was added at 200 μl/well. Luminescence was detected on Wallac (Boston, Mass.) plate reader.
(§3) The ability of the selected murine antibodies to inhibit IGF/IGF-1R dependent in vitro growth of several human tumor lines (Lung, H-23, Calu-6; Pancreas, BxPc-3, Panc-1, MiaPaCa and Colon Colo205) was measured by a proliferation assay described in Example 13.
A commercially available anti-IGF-1R antibody (IR3) was used as a positive control. The mouse IgG (anti-IDectin, IgG1) and human gamma 4 version of IDEC-152 antibody of irrelevant specificity were used as isotype matched controls for the experiments. […]

Calu-6 = experiment: IGF driven tumor cell growth, CELL TITER-GLO, Calu-6; assay type: cell-based, human; conditions: lung cancer cells
Description: as §1, §2, §3

[2] = biological target: T3, recombinant human IGF-1R ectodomain (Homo sapiens, UniProt P08069); experiment: ELISA binding of Fabs and murine MAbs to recombinant soluble IGF-1R (IGF-1R-His, IGF-1R-Fc); conditions: murine monoclonal antibodies; read-out: Binding (EC50nM) Protein ELISA
T3 construct: denoted hIGF-1R(1-902)-His10, was purchased from R&D systems (Cat. No. 305-GR-050); His or Fc (two alternative proteins, not both on one chain); purchased R & D Systems 305-GR
Description: Recombinant human IGF-1R ectodomain was used to screen a human naïve phagemid Fab library containing 3.5×10^10 unique clones (Hoet, R. M., et al. Nat. Biotechnol. 23(3):344-8 (2005), (“Hoet et al.”) which is incorporated herein by reference in its entirety). Two distinct panning arms were followed using biotinylated IGF1R-his and IGF1R-Fc protein. Proteins were captured on steptavidin-coated magnetic beads prior to incubation with the phage library. In the case of IGF1R-Fc, a biotinylated anti-Fc antibody was captured on the magnetic beads, followed by captured of the Fc fusion protein. […] Sequence analysis of all clones determined 12 clones were isolated in both arms of the panning strategy. […]
ELISA assays were performed to determine specific binding of the Fab fragment antibodies to soluble IGF-1R over the insulin receptor. […] Bound antibody was detected with HRPO labeled goat α-human kappa (Southern Biotechnology Associates, #2060-05) for Fabs and goat α-mouse IgG Fcγ (Jackson Immunoresearch, # 115-035-164) for murine MAbs. Color development was stopped by addition of 4NH2SO4 and optical density is measured at 450 nm using a Molecular Devices plate reader and binding curves are generated.

Row | Molecule | binding to immobilized recombinant human IGF-1R (SPR) [1] | binding of INSR to immobilized antibody surface (human INSR(28-956)-His10) | inhibition of IGF-1 and IGF-2 driven cell proliferation in H-23 (NCI-H23; NCI-H23 lung tumor cell line) | Proliferation of Tumor Cells H-23 (NCI-H23) | Proliferation of Tumor Cells Calu-6 (Calu-6) | EC50 [2] [nM]
1 | B1 | strong binding | little binding activity | – | – | – | –
2 | B2 | – | – | showed inhibition | +++ (>30%@0.1 μg/ml) | +++ (>30%@0.1 μg/ml) | 0.085
3 | B3 | – | – | – | ++++ (>30%@0.01 μg/ml) | +++ (>30%@0.1 μg/ml) | 0.042
